The results in this text go back to paper PMC8881611, “A mechanism of origin licensing control through autoinhibition of S. cerevisiae ORC·DNA·Cdc6” (Nature Communications, 2022).

The target of experiment [1] is T1, ScORC·DNA·Cdc6 with MBP-tagged ORC holding Orc6 ΔCBN (Orc6Δ1-120), ORC untreated (S. cerevisiae, UniProt P54784 1-914; P32833 1-620; P54790 1-616; P54791 1-529; P50874 1-479; P38826 …).
T1 construct: Orc1, S. cerevisiae, wild type; Orc2, S. cerevisiae, wild type; Orc3, S. cerevisiae, wild type; Orc4, S. cerevisiae, wild type; Orc5, S. cerevisiae, wild type; Orc6, S. cerevisiae, truncation Orc6Δ1-120 (lacks the N-terminal cyclin box fold); Cdc6, S. cerevisiae, wild type; The unstructured linker region of Orc6ΔCBN is prone to proteolytic cleavage during expression and purification; also called …
The experiment in a line: pull-down; amylose pulldown, ORC with MBP-tagged Orc4 as bait; 0.5 uM ScORC, 0.5 uM 84 bp ARS1 dsDNA, 1 uM ScCdc6, 10 uM ScMcm7 (titrations 1.5, 5, 10 uM), 2 mM ATPγS; 25 mM HEPES pH 7.5, 300 mM potassium acetate, 10 mM magnesium acetate, 1 mM DTT; on ice; maltose elution, Coomassie-stained SDS-PAGE. The conditions noted are these: both partners purified.

For experiment [2], the target named is T2, ScORC·DNA·Cdc6 with MBP-tagged ORC holding Orc6 ΔCBN (Orc6Δ1-120), ORC dephosphorylated with λ phosphatase (S. cerevisiae, UniProt P54784 1-914; P32833 1-620; P54790 1-616; P54791 1-529; P50874 1-479; P38826 …, ORC treated with λ phosphatase | ORC treated with λ phosphatase).
T2 construct: Orc1, S. cerevisiae, wild type; Orc2, S. cerevisiae, wild type; Orc3, S. cerevisiae, wild type; Orc4, S. cerevisiae, wild type; Orc5, S. cerevisiae, wild type; Orc6, S. cerevisiae, truncation Orc6Δ1-120 (lacks the N-terminal cyclin box fold); Cdc6, S. cerevisiae, wild type; ORC dephosphorylated before assembly with DNA, Cdc6 and ATPγS; also called Orc6 ΔCBN, λ phosphatase; Orc6^ΔN120; source: …
The experiment is described as above. The conditions noted are these: both partners purified.

B1: S. cerevisiae Mcm7 (ScMcm7) (natural protein, UniProt P38132 1-845, looked up)
chain: MSAALPSIQLPVDYNNLFNEITDFLVTFKQDTLSSDATRNENEDENLDAENIEQHLLEKGPKYMAMLQKVANRELNSVIIDLDDILQYQNEKFLQGTQADDLVSAIQQNANHFTELFCRAIDNNMPLPTKEIDYKDDVLDVILNQRRLRNERMLSDRTNEIRSENLMDTTMDPPSSMNDALREVVEDETELFPPNLTRRYFLYFKPLSQNCARRYRKKAISSKPLSVRQIKGDFLGQLITVRGIITRVSDVKPAVEVIAYTCDQCGYEVFQEVNSRTFTPLSECTSEECSQNQTKGQLFMSTRASKFSAFQECKIQELSQQVPVGHIPRSLNIHVNGTLVRSLSPGDIVDVTGIFLPAPYTGFKALKAGLLTETYLEAQFVRQHKKKFASFSLTSDVEERVMELITSGDVYNRLAKSIAPEIYGNLDVKKALLLLLVGGVDKRVGDGMKIRGDINVCLMGDPGVAKSQLLKAICKISPRGVYTTGKGSSGVGLTAAVMKDPVTDEMILEGGALVLADNGICCIDEFDKMDESDRTAIHEVMEQQTISISKAGINTTLNARTSILAAANPLYGRYNPRLSPLDNINLPAALLSRFDILFLMLDIPSRDDDEKLAEHVTYVHMHNKQPDLDFTPVEPSKMREYIAYAKTKRPVMSEAVNDYVVQAYIRLRQDSKREMDSKFSFGQATPRTLLGIIRLSQALAKLRLADMVDIDDVEEALRLVRVSKESLYQETNKSKEDESPTTKIFTIIKKMLQETGKNTLSYENIVKTVRLRGFTMLQLSNCIQEYSYLNVWHLINEGNTLKFVDDGTMDTDQEDSLVSTPKLAPQTTASANVSAQDSDIDLQDA
notes: Mcm7, S. cerevisiae; migrates as a doublet on SDS-PAGE; source: E. coli BL21 RIL, purified (HisTrap, amylose, TEV cleavage, HisTrap, gel filtration); not shown: His6, N-terminal, cleaved; MBP, N-terminal, cleaved
Take B1: the binding result in experiment [1] and in experiment [2] was “binds” throughout.
